Source: patent US20030170653A1, “Biological method for the production of tuliposide A and its intermediates” (priority 2001, published 2003)

B1: Gad2/pNW2: glutamate decarboxylase homolog from Alstroemeria (SEQ ID NO: 2), expressed in E. coli from vector pNW2, crude protein (protein)
chain: MVLSSAVSDNTGPVHCTFASRYVRDAPARFRMPENSIPKDTAYQIVNDELMLDGNPRLNLASFVTTWMEPECDRLMIAAANKNYVDMDEYPVTTELQNRCVNIIAHLFNAPIGDEETAVGVGTVGSSEAIMLAGLAFKRKWQNKKKAEGKPYDKPNIVTGANVQVCWEKFARYFEVELKEVKLREGYYIMDPEKAVEMVDENTICVAAILGSTLTGEFEDVKLLNKLLEEKNKETGWDTPIHVDAASGGFIAPFLYPELEWDFRLPLVKSINVSGHKYGLVYAGVGWVVWRNKEDLPEELIFHINYLGADQPTFTLNFSKGSSQIIAQYYQFIRLGFQGYKNIMENCMENTRILREGLQETGRFEIVSKDIGVPLVAFALKDSSQYTVFEIADAMRRFGWIIPAYTMPKDAEHIAVLRVVIREDFSRSLAERLVNDMKKVLAELDVLPSRITTIAHVTAVENDNGEAVIKKSFLEIEKKVITHWKDVVMNGKKTNKVC
modifications: Alstroemeria
B2: Gad3del/pNW12: glutamate decarboxylase homolog from Alstroemeria with in-frame deletion (SEQ ID NO: 4), N-terminal His-tag fusion from vector pNW12 (protein)
chain: MALSSVVSDSNNQVQCTYASRYVRDEAPGFRMPEKSIPKEAAFTMINDELMLDGNPRLNLASFVTTWMEPECDRLMMSTINKNYALMDDYPVTIDIQNRCVNMIANLFNAPIGEGETTVGCATVGSSEAMMLAGLAFKRNWQNKRKAEGKPYDKPNMVTGSNVQVCWVKFAKYFEVEMKKVNLREGYYVMDPEKAVEMVDENTICVAAILGSTLTGEFEDVKLLNDLLVEKNKKTGWDTPIHVDAAIGGFIAPFIYPELEWDFRLPLVKSINVSGHKYGLVYPGVGWVVWRNKNDLPEELIFHINYLGIDQPTFTLNFSKGSNQIIGQYYQLIRLGFEGYKNIMENCTENARILREHLEEMGVFEIISKDIGAPLVTIALKDSSKHSVFKIADTIRRFGWTIPAYTMPKDVEHIAVLRVVIREDFSRSLAERLANDMKKVLVELDIHPSRTTTIAHVKAVENGNGNYVIKKSIVENGNGEHVIKKSIGENGNGKHAIKNCRDAVIANAA
modifications: N-terminal His-tag; Alstroemeria
B3: gad3chim: chimeric glutamate decarboxylase homolog from Alstroemeria (SEQ ID NO: 6), N-terminal His-tag fusion from vector pNW9 (protein)
chain: MALSSVVSDSNNQVQCTYASRYVRDEAPGFRMPEKSIPKEAAFTMINDELMLDGNPRLNLASFVTTWMEPECDRLMMSTINKNYALMDDYPVTIDIQNRCVNMIANLFNAPIGEGETTVGCATVGSSEAMMLAGLAFKRNWQNKRKAEGKPYDKPNMVTGSNVQVCWVKFAKYFEVEMKKVNLREGYYVMDPEKAVEMVDENTICVAAILGSTLTGEFEDVKLLNDLLVEKNKKTGWDTPIHVDAAIGGFIAPFIYPELEWDFRLPLVKSINVSGHKYGLVYPGVGWVVWRNKNDLPEELIFHINYLGIDQPTFTLNFSKGSNQIIGQYYQLIRLGFEGYKNIMENCTENARILREHLEEMGVFEIISKDIGAPLVTIALKDSSKHSVFKIADTIRRFGWTIPAYTMPKDVEHIAVLRVVIREDFSRSLAERLANDMKKVLVELDIHPSRTTTIAHVKAVENGNGNYVIKKSIVENGNGEHVIKKSIGENGNGKHAIKNEHVIKKSIGENFNGKHAIKNCRDAVIANAA
modifications: N-terminal His-tag; Alstroemeria

Assays:
[1] = Decarboxylase enzyme activity of E. coli extracts, substrate L-glutamate (HPLC of FMOC derivatives); type: biochemical; details: for Rate for each substrate: Glutamate (1): crude protein, 20 mM L-glutamate, pH 5.8, room temperature; for Ratio (½): rate with glutamate (1) over rate with γ-methyleneglutamate (2)
Description: (§1) Chemically competent BL21 (DE3) cells (Novagen) were transformed with pNW2, pNW12 and pNW9, as well as with plasmids pET28a and pET29a. An isolated colony of freshly transformed cells was inoculated into 2 mL of LB containing kanamycin (50 μg/mL) and the culture grown overnight at 37° C. Cultures were transferred to 250 mL of LB containing kanamycin (50 μg/mL) and grown at 22° C. to OD 0.6-1.0, at which point they were induced with IPTG (0.1 mM). Induced cells were grown for an additional 14 h and harvested by centrifugation at 10,000× g.
(§2) Cells were resuspended in 5 mL of extraction buffer (50 mM Tris-HCl, pH 7.5, 0.2 mM EDTA, 10% glycerol, 1 mM DTT and 1 mM fresh AEBSF) and disrupted by two passes through a French press cell (12,000 psi). Soluble protein extracts were obtained from the supernatant fraction after centrifugation at 10,000× g for 10 min. Protein concentrations were determined using a Bradford reagent (Bio-Rad) (Bradford, Anal. Biochem. 72:248-254 (1976)).
(§3) Enzyme activity was determined using a method similar to that of Snedden et al. (J. Biol. Chem. 271:4148-4153 (1996)) and Turano et al. (Plant Physiol. 117:1141-1421 (1998)). Assays were carried out in a volume of 200 μL with 200 mM pyridine-HCl, pH 5.8, 10 mM NaCl, 0.1 mM PLP, 20 mM L-glutamate or D,L-γ-methyleneglutamate, and 20 to 50 uL of enzyme extract. The reactions were incubated at room temperature and 50 μL aliquots were removed at various times. Ethanol (100 μL) was added to terminate the reaction and precipitate the proteins. Samples were centrifuged at 10,000× g for 10 min. The supernatants were transferred to a fresh tube and dried under vacuum after which they were dissolved in 500 μL of borate buffer (400 mM, pH 10). For HPLC analysis, 20 μL of the sample was derivatized by mixing with 20 μL of FMOC ((9-fluorenylmethoxycarbonyl)). FMOC-derivatized samples were separated on a Novapak C18 column (3.9×150 mm, Waters) using an Alliance 2690 HPLC with a 9600 PDA detector (Waters). Samples were injected (16 μL) and separated with a gradient of Buffer A (40 mM NaPO4, pH 7.8) to Buffer B (methanol:acetonitrile:water/45:45:10). Assay products were FMOC-derivatized and quantified by comparison with standards. In each experiment, enzyme activity determinations were performed in triplicate. Proteins from Escherichia coli expressing empty vectors pET28a and pET29a were used as controls.

[2] = Decarboxylase enzyme activity of E. coli extracts, substrate D,L-γ-methyleneglutamate (HPLC of FMOC derivatives); type: biochemical; details: for Rate for each substrate: γ-methyleneglutamate (2): crude protein, 20 mM D,L-γ-methyleneglutamate, pH 5.8, room temperature; for enzyme activity against D,L-γ-methyleneglutamate compared with L-glutamate: proteins from expressing cells
Description: as §1, §2, §3

Row | Molecule | Rate for each substrate: Glutamate (1) [1] [μmol/min^−1/mg^−1] | enzyme activity with L-glutamate compared with D,L-γ-methyleneglutamate as substrate ([1]; proteins from expressing cells) | Ratio (½) [1] | Rate for each substrate: γ-methyleneglutamate (2) [2] [μmol/min^−1/mg^−1] | enzyme activity against D,L-γ-methyleneglutamate compared with L-glutamate [2]
1 | B1 | 12.0 | sixteen times higher | 16 | 0.8 | 
2 | B2 | 7.0 |  | 0.56 | 12.4 | much higher
3 | B3 |  |  |  |  | much higher
